Experimental data published in US20040170990A1, “Intracellular nucleic acid inhibitors of small guanine nucleotide exchange factors” (published 2004).

Assays:
[1] = target: chimera ARF-1 protein fused at the carboxy terminus to the constant CH1 and CH2 domains of human IgG immunoglobulin (human) (UniProt P84077); test: cell-based or functional assay
[2] = target: T1, cytohesin-1 (full-length) (UniProt Q15438); test: filter; details: non-selected library; 3 mM MgCl2, 37 C
T1 sequence: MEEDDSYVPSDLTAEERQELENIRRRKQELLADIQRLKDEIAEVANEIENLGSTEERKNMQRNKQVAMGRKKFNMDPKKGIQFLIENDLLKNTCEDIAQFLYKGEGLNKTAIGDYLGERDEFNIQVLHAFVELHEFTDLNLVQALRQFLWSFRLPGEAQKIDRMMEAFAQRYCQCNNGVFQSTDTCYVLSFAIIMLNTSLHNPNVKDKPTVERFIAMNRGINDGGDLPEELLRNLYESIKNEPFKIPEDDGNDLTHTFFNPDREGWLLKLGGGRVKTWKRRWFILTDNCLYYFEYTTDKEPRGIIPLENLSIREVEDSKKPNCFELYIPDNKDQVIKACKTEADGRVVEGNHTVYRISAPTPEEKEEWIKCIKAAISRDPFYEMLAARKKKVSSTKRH

[3] = target: T2, cytohesin-1 (full-length) (UniProt Q15438 Q15438:1-398); test: filter; 3 mM MgCl2, 37 C; details: tags: 6xHis (cytohesin-1-His6), E. coli, Ni-NTA
Method: (§1) Natl. Acad. Sci. USA 90 (1993), 11227-11231). […] Of the analysed sequences the clone M69 bound cytohesin-1-His6 with a dissociation constant of 16 nM (see Table 2). As controls the same binding experiments were carried out with E. coli lysates which were treated similarly to the cytohesin-1 expressed in E. coli.
(§2) In the next step the binding site of the aptamer M69 on cytohesin-1 was delimited in more detail. For this purpose filter binding studies were carried out using subdomain constructs of cytohesin-1. The PH domain and the Sec7 domain of cytohesin-1 were overexpressed as 6×His-Tag proteins (PH-His6 and C1-Sec7-His6) in E. coli and purified as described for cytohesin-1-His6. The synthetic polybasic C-peptide was obtained from the company TopLab (Munich). The Sec7 domain of the large Brefeldin A-sensitive ARF-GEF's Gea2 (Gea2-Sec7) was made available as 6×His-Tag protein by Cathy Jackson (Departement de Biologie Cellulaire et Moleculaire, CEA/Saclay, France). […] On the other hand, no interaction with the PH domain or the Sec7 domain of Gea2 could be detected (see Table 2). […] The aptamer M5 on the other hand recognises both the Sec7 domain of cytohesin-1 and also of Gea2 with approximately the same affinity. The PH domain of cytohesin-1 is recognised an order of magnitude less well. The aptamer M56 however binds best to the full-length protein cytohesin-1 and barely to the Sec7 domain of Gea2. Since both the Sec7 domain and also the PH domain of cytohesin-1 are bound with somewhat reduced affinities compared with the full-length protein, the aptamer appears to recognise a binding site on cytosin-1 which is composed of both domains.

[4] = target: T3, cytohesin-1 Sec7 domain (C1-Sec7) (UniProt Q15438 Q15438:73-202); test: filter; 3 mM MgCl2, 37 C; details: tags: 6xHis, E. coli
T3 chain: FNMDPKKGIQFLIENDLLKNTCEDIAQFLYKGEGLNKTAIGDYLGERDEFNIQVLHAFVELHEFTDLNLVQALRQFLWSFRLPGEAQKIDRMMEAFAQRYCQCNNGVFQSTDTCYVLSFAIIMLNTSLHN
Method: as §1, §2

[5] = target: T4, cytohesin-1 PH domain (C1-PH) (UniProt Q15438 Q15438:260-377); test: filter; 3 mM MgCl2, 37 C; details: tags: 6xHis, E. coli; label: 5'-32P
T4 chain: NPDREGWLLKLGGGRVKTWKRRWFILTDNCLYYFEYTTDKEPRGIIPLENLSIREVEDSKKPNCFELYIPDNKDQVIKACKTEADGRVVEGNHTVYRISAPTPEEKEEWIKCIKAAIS
Method: as §1, §2

[6] = target: T5, Gea2 Sec7 domain (Gea2-Sec7, G2-Sec7) (UniProt P39993 P39993:570-714); test: filter; 3 mM MgCl2, 37 C; details: tags: 6xHis, provided by Cathy Jackson; label: 5'-32P
T5 chain: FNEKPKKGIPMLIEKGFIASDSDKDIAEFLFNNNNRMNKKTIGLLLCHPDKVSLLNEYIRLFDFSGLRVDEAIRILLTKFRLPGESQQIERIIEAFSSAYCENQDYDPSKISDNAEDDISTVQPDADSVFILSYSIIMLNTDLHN
Method: as §1, §2

[7] = target: T5, Gea2 Sec7 domain (Gea2-Sec7, G2-Sec7); test: filter; barely binds; 3 mM MgCl2, 37 C; details: tags: 6xHis, provided by Cathy Jackson; label: 5'-32P
Method: as §1, with “The dissociation constant (Kd) was determined as described by Jellinek et al. (Jellinek et al., Proc. Natl.” for “Natl.”
as §2, with “The aptamer M56 however binds best to the full-length protein cytohesin-1 and barely to the Sec7 domain of Gea2. Since both the Sec7 domain and also the PH domain of cytohesin-1 are bound with somewhat reduced affinities compared with the full-length protein, the aptamer appears to recognise a binding site on cytosin-1 which is composed of both domains.” left out

[8] = target: T2, cytohesin-1 (full-length); test: filter; 3 mM MgCl2, PBS-type buffer pH 7.3, 37 C; details: tags: 6xHis (cytohesin-1-His6), E. coli, Ni-NTA; label: 5'-32P
Method: (§3) Increasing concentrations of cytohesin-1-His6 (0.1 nM to 500 nM) were incubated with the aptamers according to the invention (1.0 nM) radioactively labelled with ³²P at the 5′ end for 1 h at 37° C. in selection buffer. The RNA/cytohesin-1-His6 complexes were then filtered over nitrocellulose acetate mixed membranes (HAWP 0.45 μm, Millipore). The filter was then rinsed with 5 ml of washing buffer (3 mM MgCl₂, 137 mM NaCl, 2.7 mM KCl, 4.3 mM Na₂HPO₄.7H₂O, 1.4 mM KH₂PO₄). Before the experiment the filters were pretreated for 10 minutes with 40 mM 6-aminocaproic acid and 20% ethanol. Radioactive RNA retained on the filters was quantified by analysis using a phosphor imager (Storm 860, Amersham). The dissociation constant (Kd) was determined as described by Jellinek et al. (Jellinek et al., Proc. Natl. Acad. Sci. USA 90 (1993), 11227-11231). […] Of the analysed sequences the clone M69 bound cytohesin-1-His6 with a dissociation constant of 16 nM (see Table 2). As controls the same binding experiments were carried out with E. coli lysates which were treated similarly to the cytohesin-1 expressed in E. coli.

[9] = target: T2, cytohesin-1 (full-length); test: filter; 3 mM MgCl2, 37 C; details: tags: 6xHis (cytohesin-1-His6), E. coli, Ni-NTA; remark: listed apart in the source
Method: Filter binding experiments were carried out in order to test whether the selected aptamer sequences can also recognise native cytohesin-1 in solution. The interaction analyses are described in detail in the literature. (Jellinek et al., Proc. Natl. Acad. Sci. USA 90 (1993), 11227-11231; Jellinek et al., Biochemistry 33 (1994), 10450-10456).
as §3, with “As controls the same binding experiments were carried out with E. coli lysates which were treated similarly to the cytohesin-1 expressed in E. coli.” left out

[10] = target: T2, cytohesin-1 (full-length); test: non-binding negative control; details: tags: 6xHis (cytohesin-1-His6), E. coli, Ni-NTA
[11] = target: T4, cytohesin-1 PH domain (C1-PH); test: filter; no measurable interaction; details: tags: 6xHis, E. coli
Method: as §1
as §2, with “The aptamer M56 however binds best to the full-length protein cytohesin-1 and barely to the Sec7 domain of Gea2. Since both the Sec7 domain and also the PH domain of cytohesin-1 are bound with somewhat reduced affinities compared with the full-length protein, the aptamer appears to recognise a binding site on cytosin-1 which is composed of both domains.” left out

[12] = target: T5, Gea2 Sec7 domain (Gea2-Sec7, G2-Sec7); test: filter; no measurable interaction; details: tags: 6xHis, provided by Cathy Jackson
Method: as §1
as §2, with “The aptamer M56 however binds best to the full-length protein cytohesin-1 and barely to the Sec7 domain of Gea2. Since both the Sec7 domain and also the PH domain of cytohesin-1 are bound with somewhat reduced affinities compared with the full-length protein, the aptamer appears to recognise a binding site on cytosin-1 which is composed of both domains.” left out

Chain of chimera ARF-1 protein fused at the carboxy terminus to the constant CH1 and CH2 domains of human IgG immunoglobulin (human) (P84077 whole entry, stated change not applied, the tested form may be a part): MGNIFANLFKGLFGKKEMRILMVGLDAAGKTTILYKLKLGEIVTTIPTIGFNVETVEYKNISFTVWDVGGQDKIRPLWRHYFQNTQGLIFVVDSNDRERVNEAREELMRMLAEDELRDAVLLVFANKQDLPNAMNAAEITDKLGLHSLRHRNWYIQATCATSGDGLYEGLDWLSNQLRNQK

Work on “cytohesin-1 (full-length protein) (from UniProt Q15438 1-398) (enzyme)” yielded a binding of [gamma-35S]-GTP to ARF-1 (GDP/GTP exchange assay) [1] of 10 fold.

In the case of “CUAUAGGGAGAGACAAGCUUGGGUCNNNNNNNNNNNNNNNNNNNNNNNNNNNNNNNNNNNNNNNNAGAAGAGAAAGAGAAGUUAAUUAAGGAUCCUCAG [non-selected N40 RNA library]”, the Kd [2] is reported as greater than 4000 nM.

B1: M5 (ssRNA)
RNA: GGGAGAGACAAGCUUGGGUCGGGUUCGCUAAGUUGGUCUACCCCUCUCGAAUAUCCGUUAAGAAGAGAAAGAGAAGUUAAUUAAGGAUCCUCAG
Molecule B1 has a Kd ([3]; label: 5'-32P) of 40 nM, a Kd ([4]; label: 5'-32P) of 36 nM and a Kd [5] of 480 nM. For the same molecule, the Kd [6] was 48 nM.

B2: M56 (ssRNA)
RNA: GGGAGAGACAAGCUUGGGUCUGUUGUUGGACCAGUGUUAUUUUACGCGAUUGUGCGGUUGUGAAGAGAAAGAGAAGUUAAUUAAGGAUCCUCAG
In the case of B2, the Kd [7] is reported as greater than 1000 nM, the Kd ([4]; label: 5'-32P) is reported as 280 nM and the Kd [5] is reported as 150 nM. For the same molecule, the Kd [8] was 5 nM.

B3: M41 (ssRNA)
RNA: GGGAGAGACAAGCUUGGGUCGUCAUCCGUGUUUUGUCAUGUUUUGAUGGGGUUUGGGGUGUGAUAAGAGAAAGAGAAGUUAAUUAAGGAUCCUCAG
B3: binds [9].

B4: ML1 (ssRNA)
RNA: GGGAGAGACAAGCUUGGGUCGUGUCUGUGUAGAGGACAGGGCGAGAGUCUGAUUGUCUGCAGAAGAGAAAGAGAAGUUAAUUAAGGAUCCUCAG
B4: no binding [10].

B5: M69 (ssRNA)
RNA: GGGAGAGACAAGCUUGGGUCUAUUAUGCCUUUAGCUAGCGCAUUCUGUGGGGUGGGUGGAAGAAGAGAAAGAGAAGUUAAUUAAGGAUCCUCAG
For B5, the binding result [11] was “no binding”, the binding result [12] was “no binding” and the Kd [3] was 16 nM. The Kd [4] was 16 nM.

B6: M3 (ssRNA)
RNA: GGGAGAGACAAGCUUGGGUCAGGGAGGGUAGGGAUUUGGUUGUCCCAUGUUCGCAGCCGUAGAAGAGAAAGAGAAGUUAAUUAAGGAUCCUCAG
B6: binds [9].
